The target of one data set is Wild Type dCK (Homo sapiens, UniProt P27707). As to the kind of experiment: Steady-state kinetic (colorimetric, enzyme-coupled) assay of nucleoside phosphorylation by wild type dCK.
A short description of data set [1]: Kinetic characterization of dCK variants, substrate AraC. The note with it: for kobs AraC: nucleoside concentration of 200 μM, ATP 1 mM. Format: biochemical.
The nature of data set [2]: Kinetic characterization of dCK variants, substrate gemcitabine. Format: biochemical. The note with it: for kobs Gem: nucleoside concentration of 200 μM, ATP 1 mM; for rate of phosphorylation, Gem: Table 8, nucleoside 200 mM, ATP 1 μM [sic].
The nature of data set [3]: Kinetic characterization of dCK variants, substrate D-dA. Format: biochemical. Particulars: for kobs D-dA: nucleoside concentration of 200 μM, ATP 1 mM.
Data set [4] is described as follows: Kinetic characterization of dCK variants, substrate D-dG. Format: biochemical. The note with it: for rate of phosphorylation, D-dG: Table 8, nucleoside 200 mM, ATP 1 μM [sic]; for kobs D-dG: nucleoside concentration of 200 μM, ATP 1 mM.
The nature of data set [5]: Kinetic characterization of dCK variants, substrate D-dC. It counts as biochemical. Particulars: for rate of phosphorylation, D-dC: Table 8, nucleoside 200 mM, ATP 1 μM [sic]; for kobs D-dC: nucleoside concentration of 200 μM, ATP 1 mM.
Data set [6] in a line: Kinetic characterization of dCK variants, substrate D-dT. It counts as biochemical. The note with it: for rate of phosphorylation, D-dT: Table 8, nucleoside 200 mM, ATP 1 μM [sic]; for kobs D-dT: nucleoside concentration of 200 μM, ATP 1 mM.
The nature of data set [7]: Kinetic characterization of dCK variants, substrate L-dT. Format: biochemical. The note with it: for rate of phosphorylation, L-dT: Table 8, nucleoside 200 mM, ATP 1 μM [sic]; for kobs L-dT: nucleoside concentration of 200 μM, ATP 1 mM.
Data set [8] can be described thus: Kinetic analysis of dCK variants, substrate L-dU. It counts as biochemical. Particulars: Table 8; nucleoside 200 mM, ATP 1 μM [sic]. Here is the method:
In a separate experiment, those mutant dCKs were analyzed in the presence of a nucleoside substrate at a concentration of 200 mM, and a phosphoryl donor ATP at a concentration of 1 μM.

The mark [9] stands for this setting: Wild Type dCK, 0.4 μM dCK, 1 mM ATP.Mg, 37° C.

As a reminder, the Km is the concentration of substrate that gives half-maximal velocity. What is called kcat is the number of substrate molecules converted per active site and unit of time at saturation.

Sequence of Wild Type dCK (P27707 whole entry): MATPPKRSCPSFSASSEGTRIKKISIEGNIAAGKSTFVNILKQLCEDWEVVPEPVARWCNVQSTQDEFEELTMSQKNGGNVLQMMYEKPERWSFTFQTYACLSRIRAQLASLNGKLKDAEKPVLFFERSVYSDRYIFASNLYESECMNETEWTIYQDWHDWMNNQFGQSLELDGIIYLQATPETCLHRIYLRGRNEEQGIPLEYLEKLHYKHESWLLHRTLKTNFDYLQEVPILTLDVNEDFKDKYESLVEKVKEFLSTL

In the case of `Nc1nc2c(ncn2[C@H]2C[C@H](O)[C@@H](CO)O2)c(=O)[nH]1` [D-dG, deoxyguanosine], the “kcat, Wild-type” value on Wild Type dCK (Table 9) was around 2.5 s⁻¹.

As for `Nc1ccn([C@H]2CC[C@@H](CO)O2)c(=O)n1` [ddC, 2′,3′-dideoxycytidine], at Wild Type dCK (setting [9]), the Km amounted to 407 µM and the kcat was found to be 0.18 s⁻¹.

In the case of “R104F/D133A: human dCK mutant, phenylalanine at position 104, D133A”, the “kobs AraC” value in [1] is below 0.005 s⁻¹. In addition, the “kobs Gem” value in data set [2] is below 0.005 s⁻¹. Besides, in data set [3], the “kobs D-dA” value is below 0.005 s⁻¹. In data set [4], the “rate of phosphorylation, D-dG” value was determined as 0.02 s⁻¹ and the “kobs D-dG” value was below 0.005 s⁻¹. Besides, in data set [5], the “rate of phosphorylation, D-dC” value amounted to 0.02 s⁻¹ and the “kobs D-dC” value is below 0.005 s⁻¹. Moreover, in data set [6], the “rate of phosphorylation, D-dT” value was determined as 0.02 s⁻¹ and the “kobs D-dT” value is below 0.005 s⁻¹. Moreover, in [7], the “rate of phosphorylation, L-dT” value is 0.02 s⁻¹ and the “kobs L-dT” value was below 0.005 s⁻¹.

As for “R104I/D133A: modified human dCK, isoleucine at position 104, alanine at position 133, SEQ ID NO:12”, in data set [1], the “kobs AraC” value stood at 0.07 ± 0.01 s⁻¹. Further, the “Rel kobs (AraC)” value in data set [1] (relative to WT) amounted to 0.25. Moreover, in [2], the “rate of phosphorylation, Gem” value turned out to be 0.21 s⁻¹ and the “kobs Gem” value is 0.21 ± 0.08 s⁻¹. Besides, in [2] (relative to WT), the “Rel kobs (Gem)” value was determined as 0.53. Further, the “rate of phosphorylation, L-dU” value in data set [8] came out at 0.4 s⁻¹. Besides, in data set [3], the “kobs D-dA” value is 0.21 ± 0.01 s⁻¹. The “Rel kobs (D-dA)” value in [3] (relative to WT) came to 0.18. Further, in [4], the “rate of phosphorylation, D-dG” value was determined as 0.08 s⁻¹ and the “kobs D-dG” value was 0.08 ± 0.01 s⁻¹. Moreover, the “Rel kobs (D-dG)” value in [4] (relative to WT) was 0.08. Also, in data set [5], the “rate of phosphorylation, D-dC” value came to 0.06 s⁻¹ and the “kobs D-dC” value amounted to 0.06 ± 0.01 s⁻¹. Further, in data set [5] (relative to WT), the “Rel kobs (D-dC)” value worked out at 2. Also, in data set [6], the “rate of phosphorylation, D-dT” value worked out at 0.4 s⁻¹ and the “kobs D-dT” value is 0.40 ± 0.01 s⁻¹. In addition, the “Rel kobs (D-dT)” value in data set [6] (relative to WT) came out at 50. In data set [7], the “rate of phosphorylation, L-dT” value is 0.19 s⁻¹ and the “kobs L-dT” value was 0.19 ± 0.02 s⁻¹. For the same compound, the “Rel kobs (L-dT)” value in [7] (relative to WT) worked out at 10.

On to “R104K/D133A: human dCK mutant, lysine at position 104, D133A”, for which the “kobs AraC” value in data set [1] is below 0.005 s⁻¹. Moreover, the “kobs Gem” value in [2] was below 0.005 s⁻¹. Also, in [3], the “kobs D-dA” value is below 0.005 s⁻¹. Moreover, the “kobs D-dG” value in [4] was below 0.005 s⁻¹. Besides, the “kobs D-dC” value in [5] is below 0.005 s⁻¹. The “kobs D-dT” value in data set [6] is below 0.005 s⁻¹. Further, the “kobs L-dT” value in data set [7] was below 0.005 s⁻¹.

For “R104Q: human dCK variant of Table 8 with Q at position 104 and unchanged D133”, in data set [2], the “rate of phosphorylation, Gem” value worked out at 0.06 s⁻¹. Also, in data set [8], the “rate of phosphorylation, L-dU” value was determined as 0.06 s⁻¹. Besides, the “rate of phosphorylation, D-dG” value in [4] stood at 0.06 s⁻¹. For the same compound, the “rate of phosphorylation, D-dC” value in data set [5] was 0.07 s⁻¹. The “rate of phosphorylation, D-dT” value in data set [6] amounted to 0.05 s⁻¹. Moreover, the “rate of phosphorylation, L-dT” value in [7] stood at 0.06 s⁻¹.

Take “R104V/D133A: human dCK mutant, valine at position 104, D133A”: in data set [1], the “kobs AraC” value was below 0.005 s⁻¹. For the same compound, the “kobs Gem” value in data set [2] was below 0.005 s⁻¹. Moreover, the “kobs D-dA” value in data set [3] is below 0.005 s⁻¹. In addition, in data set [4], the “rate of phosphorylation, D-dG” value was 0.03 s⁻¹ and the “kobs D-dG” value is below 0.005 s⁻¹. For the same compound, in data set [5], the “rate of phosphorylation, D-dC” value was found to be 0.03 s⁻¹ and the “kobs D-dC” value was below 0.005 s⁻¹. Moreover, in data set [6], the “rate of phosphorylation, D-dT” value came out at 0.04 s⁻¹ and the “kobs D-dT” value was below 0.005 s⁻¹. Also, in data set [7], the “rate of phosphorylation, L-dT” value is 0.05 s⁻¹ and the “kobs L-dT” value is below 0.005 s⁻¹.

The values above are taken from patent publication US8349318B2, “Use of specifically engineered enzymes to enhance the efficacy of prodrugs” (The Board of Trustees of the University of Illinois, priority 2008, dated 2013).
